Literature values as cited in paper PMC3418248 (2012).

Molecular target: FtsZ C-terminal 17 amino acids (Bacillus subtilis) (UniProt P17865)
Conditions: cited from earlier work

Sequence of EzrA (O34894 whole entry): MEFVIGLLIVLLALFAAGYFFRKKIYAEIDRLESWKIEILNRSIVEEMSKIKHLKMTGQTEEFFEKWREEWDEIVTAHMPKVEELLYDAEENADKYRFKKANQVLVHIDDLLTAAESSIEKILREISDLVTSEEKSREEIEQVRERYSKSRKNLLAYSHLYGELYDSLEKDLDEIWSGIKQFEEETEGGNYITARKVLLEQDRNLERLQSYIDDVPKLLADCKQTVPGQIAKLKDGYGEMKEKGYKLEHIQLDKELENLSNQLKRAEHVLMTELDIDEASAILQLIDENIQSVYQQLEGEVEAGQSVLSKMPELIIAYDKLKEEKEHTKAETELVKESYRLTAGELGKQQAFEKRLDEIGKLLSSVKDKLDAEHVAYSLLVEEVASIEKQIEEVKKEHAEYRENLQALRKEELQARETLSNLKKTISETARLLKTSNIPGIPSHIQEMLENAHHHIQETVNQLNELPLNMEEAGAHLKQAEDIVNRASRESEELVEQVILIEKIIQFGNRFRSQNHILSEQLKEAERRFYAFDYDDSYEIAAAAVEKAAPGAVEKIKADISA

## EzrA (from UniProt O34894)
  Kd: 102 µM
